Results on one substance are retold here after publication PMC3068996.

The target of the experiment is recombinant GST-tagged TgNF3 (Toxoplasma gondii nuclear factor 3) (T. gondii). In words: pull-down.

“purified core histones from HeLa cells (H3, H4, H2A/H2B) (from UniProt P68431 1-136; P62805 1-103; P0C0S8 1-130; P62807 1-126) (complex)”: the percent of input bound amounted to 25%.
